Results as given in US20160312212A1 (published 2016).
Values belong to the binder of their own block, whether it stands above or below them. Where no end group is shown, it is not given here. The star is where a group is joined. Biotin = O=C1N[C@H]2[C@H](CS[C@H]2CCCCC(=O)*)N1

Key:
[1] = target: T1, Thrombin (UniProt P00734 328-622); assay: SPR (Biacore single cycle kinetics)
[2] = target: T1, Thrombin; assay: SPR (Biacore multiple cycle kinetics)

Kd [1]: 960 pM
B1: peptide encoded by linear DNA template 300-53-C (cow antibody scaffold with RDPGRLIFQS and Strep-tag II) (designed binder)
chain: MGCTSVHQETKKYQSRDPGRLIFQSSYTYNYEHVDVWGCGSAWSHPQFEKGS

Kd [2]: 780 pM
B2: Biotin-GCTSVHQETKKYQSRDPGRLIFQSSYTYNYEHVDVWGCG (designed binder)
peptide: Biotin-GCTSVHQETKKYQSRDPGRLIFQSSYTYNYEHVDVWGCG
modifications: cysteine pairing not given here

Kd [2]: 36600 pM
B3: Biotin-GGGGSGGGGSRDPGRLIFQS (peptide)
peptide: Biotin-GGGGSGGGGSRDPGRLIFQS
